Measurements: PMC2719869, “A Mouse Model for the Metabolic Effects of the Human Fat Mass and Obesity Associated FTO Gene” (PLoS Genetics, 2009)

Molecular target: the molecule itself
Assay: native MS; non-denaturing nano-electrospray MS; 10 uM protein (Q-ToF) or 15 uM protein (Synapt HDMS) sprayed from 15 mM ammonium acetate pH 7.5, cone voltage 80 V; monomer to dimer

B1: wild-type murine FTO (fat mass and obesity associated protein), full length (enzyme, mouse, UniProt Q8BGW1 1-502, looked up)
chain: MKRVQTAEEREREAKKLRLLEELEDTWLPYLTPKDDEFYQQWQLKYPKLVFREAGSIPEELHKEVPEAFLTLHKHGCLFRDVVRIQGKDVLTPVSRILIGDPGCTYKYLNTRLFTVPWPVKGCTVKYTEAEIAAACQTFLKLNDYLQVETIQALEELAVREKANEDAVPLCMAEFPRAGVGPSCDDEVDLKSRAAYNVTLLNFMDPQKMPYLKEEPYFGMGKMAVSWHHDENLVDRSAVAVYSYSCEGSEDESEDESSFEGRDPDTWHVGFKISWDIETPGLTIPLHQGDCYFMLDDLNATHQHCVLAGSQPRFSSTHRVAECSTGTLDYILERCQLALQNVLNDSDDGDVSLKSFDPAVLKQGEEIHNEVEFEWLRQFWFQGNRYKLCTDWWCEPMTHLEGLWKKMESMTNAVLREVKREGLPVEQRSEILSAILVPLTVRQNLRKEWHARCQSRVVRTLPVQQKPDCRPYWEKDDPSMPLPFDLTDVVSELRGQLLEARS
notes: also called mFTO; wild-type mFTO; source: E. coli, soluble; prepared as previously reported for full length mFTO [8]
stoichiometry N: 2

B2: C-terminal domain of wild-type murine FTO (residues D329-end) (domain or fragment, mouse, UniProt Q8BGW1 329-502, looked up)
chain: DYILERCQLALQNVLNDSDDGDVSLKSFDPAVLKQGEEIHNEVEFEWLRQFWFQGNRYKLCTDWWCEPMTHLEGLWKKMESMTNAVLREVKREGLPVEQRSEILSAILVPLTVRQNLRKEWHARCQSRVVRTLPVQQKPDCRPYWEKDDPSMPLPFDLTDVVSELRGQLLEARS
modifications: partial alpha-N-gluconylation of the N-terminal His-tag (+178 Da adduct, likely)
notes: FTO, mouse, C-terminal domain, residues 329-502; Further details of the construct are in Text S1; also called CmFTO; mFTO 329-502 truncation; source: E. coli, soluble; prepared as previously reported for full length mFTO [8]; not shown: His tag, N-terminal, kept
stoichiometry N: 2
